According to article PMC13458718, “HSV-1 origin binding protein UL9 forms intermolecular DNA tethers and intramolecular DNA loops” (Nature Communications, 2026):

How the values were obtained:
[1] = biological target: T1, UL9 origin-binding protein (Human herpesvirus 1 (HSV-1)) (UniProt P10193); assay: EMSA; settings: C6-amino-dT at 5' end of strand 1 and internal (position 10) in strand 2; UL9 buffer: 40 mM Tris-Cl pH 7.5, 50 mM NaCl, 50 mM K-glutamate, 1 mM MgCl2, 0.5 mM DTT, 0.1 mg/ml BSA; EMSA at room temperature, 5 min; TIRF with oxygen …
T1 sequence: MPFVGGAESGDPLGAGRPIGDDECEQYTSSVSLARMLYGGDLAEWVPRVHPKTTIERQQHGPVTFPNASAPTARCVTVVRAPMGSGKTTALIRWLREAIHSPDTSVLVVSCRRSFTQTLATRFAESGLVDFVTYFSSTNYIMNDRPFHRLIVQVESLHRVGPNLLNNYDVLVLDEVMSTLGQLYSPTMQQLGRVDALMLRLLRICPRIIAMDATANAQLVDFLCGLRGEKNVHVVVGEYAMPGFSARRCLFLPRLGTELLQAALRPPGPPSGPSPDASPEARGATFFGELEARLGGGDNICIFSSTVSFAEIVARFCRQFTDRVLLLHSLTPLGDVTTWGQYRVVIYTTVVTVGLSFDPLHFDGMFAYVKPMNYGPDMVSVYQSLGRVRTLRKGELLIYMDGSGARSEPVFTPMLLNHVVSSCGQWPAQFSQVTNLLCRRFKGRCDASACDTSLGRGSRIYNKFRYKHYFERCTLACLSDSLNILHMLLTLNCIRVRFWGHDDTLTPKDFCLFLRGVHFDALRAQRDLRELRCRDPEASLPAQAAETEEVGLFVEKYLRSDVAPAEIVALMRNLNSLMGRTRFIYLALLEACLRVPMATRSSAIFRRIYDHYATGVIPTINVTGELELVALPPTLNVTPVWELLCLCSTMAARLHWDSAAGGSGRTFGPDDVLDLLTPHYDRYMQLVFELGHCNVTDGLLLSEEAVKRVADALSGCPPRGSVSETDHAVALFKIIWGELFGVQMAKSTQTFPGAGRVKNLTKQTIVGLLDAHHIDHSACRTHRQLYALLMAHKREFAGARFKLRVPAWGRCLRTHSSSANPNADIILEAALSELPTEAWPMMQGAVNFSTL

[2] = biological target: T2, UL9-atto647N (Human herpesvirus 1 (HSV-1)) (UniProt P10193); assay: single-molecule TIRF/FRET; settings: C6-amino-dT at 5' end of strand 1 and internal (position 10) in strand 2; UL9 buffer: 40 mM Tris-Cl pH 7.5, 50 mM NaCl, 50 mM K-glutamate, 1 mM MgCl2, 0.5 mM DTT, 0.1 mg/ml BSA; EMSA at room temperature, 5 min; TIRF with oxygen …
T2 sequence: T1 sequence

[3] = biological target: T3, HSV-1 UL9 (origin-binding protein UL9) (Human alphaherpesvirus 1 strain 17, UniProt P10193); assay: single-molecule TIRF (ALEX), UL9-atto647N dwell time on oriS DNA; settings: 1 mM ATPγS, 20 nM UL9-atto647N, 1 mM MgCl2, pH 7.5; not an affinity constant
T3 construct: full ORF from plasmid pCM-UL9, C-terminal 3C-ybbR-TEV-StrepII tag, insect cells (Sf9/High5), StrepTrap and heparin; dimer; tag kept in unlabeled protein, TEV added on atto647N labelling

[4] = biological target: the molecule itself; assay: single-molecule photobleaching steps (prism-TIRF with alternating laser excitation)
[5] = biological target: UL9 origin-binding protein (Human herpesvirus 1 (HSV-1), UniProt P10193 1-851); assay: single-molecule TIRF DNA capture; trans tethering to immobilized oriS (30.0 ± 6.9% of molecules); 20 nM UL9, no ATP; UL9 buffer: 40 mM Tris-Cl pH 7.5, 50 mM NaCl, 50 mM K-glutamate, 1 mM MgCl2, 0.5 mM DTT, 0.1 mg/ml BSA; EMSA at room temperature, 5 min; TIRF with oxygen scavenger; settings: protein: recombinant; tags: C-terminal 3C-ybbR-TEV-StrepII; chain copies: 2; label: Cy5 on strand 1; strand 1 5' overhang 1 nt (amino-dT)

Molecule: TCCAGTGCTCGCACTTCGCCCTAATAATATATATATATTGGGACGAAGTGCGAACGCTTCGCGTTCTCACTTC / AAAAAAAAATGAAGTGAGAACGCGAAGCGTTCGCACTTCGTCCCAATATATATATATTATTAGGGCGAAGTGCGAGCACTGG [oriS template AM057/AM071]
- K half [1]: 13 nM
- Kd [1]: 131 nM
- Kd [2]: 31.9 nM

Molecule: Nc1ncnc2c1ncn2[C@@H]1O[C@H](COP(=O)(O)OP(=O)(O)OP(O)(O)=S)[C@@H](O)[C@H]1O [ATPγS]
- τon, avg [3]: 4.2 ± 0.1 s

B1: HSV-1 origin-binding protein UL9 labelled at its C-terminus with atto647N through a ybbR-tag (natural protein)
chain: T1 sequence
modifications: atto647N (CoA-conjugated dye, attached by Sfp transferase) on the C-terminal ybbR tag
notes: also called UL9-atto647N; not shown: ybbR, C-terminal, kept; strepII, C-terminal, cleaved
- stoichiometry N [4]: 2

B2: Cy5-oriS capture DNA AM057/AM058 (dsDNA)
DNA 1: TCCAGTGCTCGCACTTCGCCCTAATAATATATATATATTGGGACGAAGTGCGAACGCTTCGCGTTCTCACTTC
DNA 2: GAAGTGAGAACGCGAAGCGTTCGCACTTCGTCCCAATATATATATATTATTAGGGCGAAGTGCGAGCACTGG
modifications: C6-amino-dT at 5' end of strand 1
- binding result [5]: binds
